Data: PMC3817844 (Angewandte Chemie (International ed. in English), 2013)

biological target: AlleyCat; AlleyCat7 (Gallus gallus, UniProt P62149, A129T/A89Q/F93E/H108I/I86L/L113R/M125L/M145R); test: inhibition of Kemp elimination; assay type: biochemical; conditions: not given

| Molecule | Ki |
| --- | --- |
| O=[N+]([O-])c1ccc2[nH]nnc2c1 [5-NBT, 5-nitro-benzotriazole] | 18 µM |

biological target: Glu92 (UniProt position 93, EQFRVEDKDGN); test: kinetics; conditions: Ca2+-bound (active) protein; the protein is inactive without Ca2+

| Molecule | pKa |
| --- | --- |
| AlleyCat7 (calmodulin C-terminal domain with round 7 mutations) (Gallus gallus; F92E;M144R;H107I;L112R;I85L;A128T;M124L;A88Q) | 6.39±0.02 |
| CaM F92E round 7 variant, tag removed (Gallus gallus; F92E;M144R;H107I;L112R;I85L;A128T;M124L;A88Q) | 6.43±0.02 |

biological target: Glu92 (UniProt position 93, EAFRVEDKDGN); test: kinetics; conditions: Ca2+-bound (active) protein; the protein is inactive without Ca2+

| Molecule | pKa |
| --- | --- |
| CaM F92E round 4 variant (F92E/M144R/H107I/L112R/I85L) (Gallus gallus; F92E;M144R;H107I;L112R;I85L) | 6.93±0.03 |
| CaM F92E round 6 variant (Gallus gallus; F92E;M144R;H107I;L112R;I85L;A128T;M124L) | 6.67±0.01 |
| CaM F92E (full-length calmodulin F92E) (Gallus gallus; F92E) | 6.98±0.05 |
| CaM F92E 5R (round 5 variant), with affinity tag (Gallus gallus; F92E;M144R;H107I;L112R;I85L;A128T) | 6.60±0.02 |
| CaM F92E round 3 variant (F92E/M144R/H107I/L112R) (Gallus gallus; F92E;M144R;H107I;L112R) | 6.70±0.03 |
| CaM F92E 5R (round 5 variant), affinity tag removed (Gallus gallus; F92E;M144R;H107I;L112R;I85L;A128T) | 6.47±0.03 |
| CaM F92E round 2 variant (F92E/M144R/H107I), tag removed (Gallus gallus; F92E;M144R;H107I) | 6.73±0.03 |
| CaM F92E round 1 variant (F92E/M144R) (Gallus gallus; F92E;M144R) | 7.21±0.06 |

same assay, conditions: Ca2+-bound (active) protein; the protein is inactive without Ca2+; cited from earlier work

| Molecule | pKa |
| --- | --- |
| AlleyCat (calmodulin C-terminal domain F92E) (Gallus gallus; F92E) | 6.9±0.1 |
